The values below come from patent US5422095A, “Low molecular weight polysaccharide complexes for radiation diagnosis” (Nihon Medi-Physics Co., Ltd., priority 1991, dated 1995).

Series [1] in a line: Relaxivity of GPEN-DTES-Gd and GTRI-DTES-Gd, proton relaxation time by 6.35T NMR (in vitro test, Test 1). The series is classed as physicochemical. To be noted: for R1 (relaxivity on T1): 24° to 26° C., calculated from relaxation times. The method, then: Relaxivity of GPEN-DTES-Gd and GTRI-DTES-Gd (in vitro test)
An appropriate amount of GPEN-DTES-Gd and GTRI-DTES-Gd were dissolved in distilled water. The relation to water proton exposed to these compounds was determined as a proton relaxation time (T1 and T2, msec) at room temperature (24° to 26° C.) using NMR (6.35T, manufactured by Nihondenshi K. K., Japan).
GPEN-DTES-Gd (2.3 mM) shortened remarkably the T1 value of water about 60 times and the T2 value of water 85 times. And GTRI-DTES-Gd (2.9 mM) shortened remarkably the T1 value of water about 70 times and the T2 value about 85 times. The relaxivity on T1 and T2 [each R1 and R2, (mM.S)^-1 ] were calculated based on the values in Tables 1 and 2.

For series [2] the following is noted: DTPA-Gd lower than Gd itself; cited from earlier work.
For series [3] the following is noted: in vivo; cited from earlier work.
A further series deals with blood. The series can be described thus: Relaxation time of GPEN-DTES-Gd in blood in mouse after intravenous administration (ex vivo test, Test 2). More on the design: species or system ICR female mouse. The note with it: 0.025 mmol/kg in terms of Gd, 15 minutes after administration. The method, then:
Relaxation time of GPEN-DTES-Gd in blood in mouse after intravenous administration (ex vivo test)
GPEN-DTES-Gd (Gd concentration: 75 mM) (0.025 mmol/kg in terms of Gd) was administered to a thiopental anesthetized ICR female mouse (body weight: 44 g) through the tail vein. At 15 minutes after administration, the blood was taken from the aorta descendence, and the relaxation time (T1, msec) of the blood at room temperature (24° to 26° C.) was determined with a 6.35T NMR apparatus (manufactured by Nihondenshi K. K., Japan).
As a control, blood was taken from the aorta descendence of a thiopental anesthetized ICR female mouse (body weight: 55 g) and, according to the same manner, the relaxation time was determined.

Another series has as its system heart. The series can be described thus: Contrast enhancement of the heart in rat at 1 hour after intravenous administration, MRI (in vivo test, Test 3). More on the design: species or system Sprague-Dawley female rat. To be noted: 1 hour after i.v. administration, 0.094 mmol/kg Gd vs 0.1 mmol/kg DTPA-Gd, 1.5T, T1 weighted spin echo. The method, then: Contrast enhancement of the heart in rat at 1 hour after intravenously administration of GPEN-DTES-Gd (in vivo test)
A solution of GPEN-DTES-Gd (Gd concentration: 75.1 mM) (0.094 mmol/kg in terms of Gd) was administered to a thiopental anesthetized Sprague-Dawley female rat (214 g, 9-weeks old) through a cannula fixed to femoral vein. At 1 hour after administration, the animal was sacrificed by administration of pentobarbital solution (1 ml) through the above cannula, fixed at prone position in the magnetic field of a MRI spectrometer. MRI measurement (transverse sectional view) of the chest region including the heart was carried out.
As a control, DTPA-Gd (MAGNEVIST®) was administered to a Sprague-Dawleyfemale rat (body weight: 204 g, 9-weeks old) through a cannula fixed at femoral vein (0.1 mmol/kg) and the measurement (transverse sectional view) of the chest region including the heart was carried out as described above.
The apparatus was SIGMA (manufactured by GE, U.S.A.) with magnetic field intensity of 1.5T and, as an imaging coil, a 26 cm .phi.bird-cage type head QD coil was used. Imaging was carried out according to spin echo method of T1 weighted (TR/TE, 600/30 msec) under the condition of 10 mm in slice thickness, a resolution of 256×128.

[4] abbreviates: 2.3 mM in distilled water, 6.35T, room temperature (24° to 26° C.).

For the compound `O=C([O-])CN(CCN(CC(=O)[O-])CC(=O)O)CCN(CC(=O)[O-])CC(=O)O.[Gd+3]` [DTPA-Gd, (Diethylenetriaminepentaacetic acid)gadolinate], in series [1] (water, 6.35T), the “R1 (relaxivity on T1)” value is on record as 3.9 (mM · S)^-1. For the same compound, in series [2], the “relaxivity relative to Gd itself” value is recorded as “about 1/2”. The “excretion into the urine (in words)” value in series [3] was “rapidly excreted into the urine after administration”.

In the case of “(galactosamino-pentamer)-[1-(p-isothiocyanatebenzyl)-diethylenetriaminepentaacetic acid]gadolinate [GPEN-DTES-Gd]”, in series [1] (2.3 mM), the “Shortening of the T1 value of water” value is “about 60 times” and the “Shortening of the T2 value of water” value was found to be 85 times. In series [1] (setting [4]), this compound showed a T1 relaxation time of 55 ms and a T2 relaxation time of 26 ms. Also, in series [1] (in words, compared with DTPA-Gd), the “in vitro relaxation effect” value was “predominantly higher than that of DTPA-Gd”. Also, in series [1] (magnetic field intensity 6.35T, 25° C.), the “T1 relaxivity in water” value is reported as 7.6 (mM.S)^-1. Moreover, the “R1 (relaxivity on T1)” value in series [1] (water, 6.35T) was 7.6 (mM · S)^-1. For the same compound, the “T1 relaxivity relative to DTPA-Gd” value in series [1] (water, 6.35T, 25° C.) was “about two”. Further, in the series on blood, the “T1 relaxation time effect in blood compared with control mouse” value is “about 2.3 times”. Moreover, in the series with blood (tail vein, 6.35T, 24° to 26° C.), the T1 in blood turned out to be 769 ms. In the series with heart, the “MRI signal intensity / contrast effect in the heart relative to DTPA-Gd (MAGNEVIST®)” value was “about 1.8 times”.
